The target of assay [1] is Mouse IgG1 Fc fused SARS-CoV-2 RBD (Sino Biological) (SARS-CoV-2; mouse) (UniProt P0DTC2).
For assay [2], the target named is recombinant prefusion stabilized SARS-CoV-2-2P spike protein (SARS-CoV-2) (UniProt P0DTC2).

Consider four substances from patent publication US20230227537A1.

Values joined by “and” are separate entries in the source; they are usually repeats but may differ in a detail not shown here. Equal entries are not always repeated.

Consider “VHH72_D61Q - (GGGGS)x2-hIgG1.Hinge-hIgG1.Fc (Fc fusion)”, for which, in assay [1], the % Signal decrease over 8 min dissociation was 8% and 10%; the Kd – broadly, the concentration at which binding is half-saturated – is 0.0661 nM and 0.0642 nM; the koff (in general, the rate constant with which the complex falls apart) is 0.000183 s⁻¹ and 0.000205 s⁻¹; the on-rate constant (kon) (as a rule, a measure of how fast the partners come together) is 2.76e+06 M⁻¹ s⁻¹ and 3.19e+06 M⁻¹ s⁻¹.

Turning to “VHH72_V100L - (GGGGS)x2-hIgG1.Hinge-hIgG1.Fc (Fc fusion)”, in assay [1], the % Signal decrease over 8 min dissociation was 23% and 25%; the Kd was 0.076 nM and 0.0771 nM; the koff was 0.000557 s⁻¹ and 0.000637 s⁻¹; the kon was 7.34e+06 M⁻¹ s⁻¹ and 8.26e+06 M⁻¹ s⁻¹.

“D72-02: VHH72-GS-hIgG1hinge-hIgG1Fc (Fc fusion)”: the EC50 (usually the concentration at which the effect is half-maximal) in assay [2] is 0.0223 µg/mL.

With “VHH72-T60W-hIgG1 Fc (P. pastoris supernatant) (Fc fusion)”, in assay [1], the % Signal decrease over 8 min dissociation was 13% and 15%; the Kd was 75.7 nM and 53.1 nM; the kon was 41500 M⁻¹ s⁻¹ and 49700 M⁻¹ s⁻¹.
